Source: US20230192835A1 (PROMETHEUS BIOSCIENCES, published 2023)

Target: T1, membrane-associated human TL1A on transfected HEK293 cells (human, UniProt O95150 1-251)
T1 construct: whole, on cells
T1 sequence (looked up): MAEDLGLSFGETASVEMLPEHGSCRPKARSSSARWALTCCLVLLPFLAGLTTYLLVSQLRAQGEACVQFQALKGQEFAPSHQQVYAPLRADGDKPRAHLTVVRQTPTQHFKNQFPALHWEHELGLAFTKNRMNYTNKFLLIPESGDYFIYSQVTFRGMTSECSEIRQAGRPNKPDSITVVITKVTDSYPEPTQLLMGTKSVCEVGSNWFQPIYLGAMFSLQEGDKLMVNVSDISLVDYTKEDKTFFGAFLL
Assay: flow cytometry, HEK293 cells expressing human TL1A, Fab
Experimental: All the Fab variants were tested for binding to membrane-associated human TL1A. For these studies a HEK293 cell line that had been transfected with human TL1A was used. The 293 cells expressing membrane bound human TL1A were maintained in DMEM containing L-glutamine, glucose, sodium pyruvate, and phenol red (ThermoFisher cat #11995-065) plus 10% fetal bovine serum, 1× penicillin-streptomycin (Fisher cat #15140122) and 2 μg/ml puromycin (Gibco cat #A11138-03) in a 37° C. incubator with 5% CO₂. Three days prior to the assay, a T-75 flask was seeded with 3×10⁶ cells so that the flask was 90-95% confluent on the day of the assay. The media was aspirated and the cell monolayer was gently washed with 5 ml PBS. Adherent cells were removed by repeatedly pipetting 10 ml ice cold 1% BSA/PBS against the monolayer. The cells were counted and 5×10⁵ were aliquoted for each sample to be analyzed. The cells were collected by centrifuging at 300×g at 4° C. for 5 minutes and the wash was discarded. The cells were resuspended in 100 μl Fab or IgG diluted in 1% BSA/PBS and placed on ice for 30 min. Next, the cells were washed with 1 ml 1% BSA/PBS and collected by centrifuging at 300×g at 4° C. for 5 min. The wash was discarded and 100 μl secondary goat F(ab′)2 anti-human kappa FITC (Southern Biotech cat #2062-02) or goat F(ab′)2 anti-human IgG PE (Southern Biotech cat #2043-09) conjugate, diluted 1:200 in BSA/PBS was added. Cells were placed on ice for 30 min. Finally, the cells were washed with 1 ml BSA/PBS, collected by centrifuging at 300×g at 4° C. for 5 min. The wash was removed and the cells were resuspended in 500 μl 1% BSA/PBS. One drop of Sytox AADvanced ReadyFlow Reagent (ThermoFisher cat #R37173) was added per sample and the samples were analyzed on the Attune NxT Flow Cytometer (ThermoFisher).

Binder | binding result
Clone 2 Fab (Fab, V domains shown, Fab) VH: QVQLVQSGAEVKKPGASVKVSCKASGFDIQDTYMHWVRQAPGQGLEWMGRIEPASGHIKYSPKFQGRVTMTRDTSTSTVYMELSSLRSEDTAVYYCARSGGLPDWWGQGTTVTVSS VL: EIVLTQSPGTLSLSPGERATLSCRASSSVSYMYWYQQKPGQAPRLLIYATSNLASGIPDRFSGSGSGTDFTLTISRLEPEDFAVYYCQQWEGNPRTFGGGTKLEIK | binds
Clone 46 Fab (Fab, V domains shown, Fab) VH: QVQLVQSGAEVKKPGASVKVSCKASGFDIQDTYMHWVRQAPGQGLEWMGRIEPASGHVKYSPKFQVRVTMTRDTSTSTVYMELSSLRSEDTAVYYCARSGGLPDWWGQGTTVTVSS VL: EIVLTQSPGTLSLSPGERATLSCRASSSVSYMYWYQQKPGQAPRLLIYATSNLASGIPDRFSGSGSGTDFTLTISRLEPEDFAVYYCQQWEGNPRTFGGGTKLEIK | binds
Clone 47 Fab (Fab, V domains shown, Fab) VH: QVQLVQSGAEVKKPGASVKVSCKASGFDIQDTYMHWVRQAPGQGLEWMGRIEPASGHVKYDPKFQTRVTMTRDTSTSTVYMELSSLRSEDTAVYYCARSGGLPDWWGQGTTVTVSS VL: EIVLTQSPGTLSLSPGERATLSCRASSSVSYMYWYQQKPGQAPRLLIYATSNLASGIPDRFSGSGSGTDFTLTISRLEPEDFAVYYCQQWEGNPRTFGGGTKLEIK | binds
Clone 17L Fab (Fab, V domains shown, Fab) VH: QVQLVQSGAEVKKPGASVKVSCKASGFDIQDTYMHWVRQAPGQGLEWMGRIDPASGHLKYDPKFQVRVTMTRDTSTSTVYMELSSLRSEDTAVYYCARSGGLPDMWGQGTTVTVSS VL: EIVLTQSPGTLSLSPGERATLSCRASSSVSYMYWYQQKPGQAPRLLIYATSNLASGIPDRFSGSGSGTDFTLTISRLEPEDFAVYYCQQWQGNPRTFGGGTKLEIK | binds
Clone 52 Fab (Fab, V domains shown, Fab) VH: QVQLVQSGAEVKKPGASVKVSCKASGFDIQDTYMHWVRQAPGQGLEWMGRIEPASGHIKYSPKFQGRVTMTRDTSTSTVYMELSSLRSEDTAVYYCARSGGLPDWWGQGTTVTVSS VL: EIVLTQSPGTLSLSPGERATLSCGASSSVSYMYWYQQKPGQAPRLLIYATSNLASGIPDRFSGSGSGTDFTLTISRLEPEDFAVYYCQQWEGNPRTFGGGTKLEIK | binds

Target: T1, membrane-associated human TL1A on …
Assay: flow cytometry, HEK293 cells expressing human TL1A, IgG

Binder | binding result
Clone 17L IgG1 (modified) (antibody, also called 17L G1) heavy: not shown light: EIVLTQSPGTLSLSPGERATLSCRASSSVSYMYWYQQKPGQAPRLLIYATSNLASGIPDRFSGSGSGTDFTLTISRLEPEDFAVYYCQQWQGNPRTFGGGTKLEIKRTVAAPSVFIFPPSDEQLKSGTASVVCLLNNFYPREAKVQWKVDNALQSGNSQESVTEQDSKDSTYSLSSTLTLSKADYEKHKVYACEVTHQGLSSPVTKSFNRGEC | binds
Clone 47 IgG1 (modified) (antibody, also called 47 G1; variant 47) heavy: not shown light: EIVLTQSPGTLSLSPGERATLSCRASSSVSYMYWYQQKPGQAPRLLIYATSNLASGIPDRFSGSGSGTDFTLTISRLEPEDFAVYYCQQWEGNPRTFGGGTKLEIKRTVAAPSVFIFPPSDEQLKSGTASVVCLLNNFYPREAKVQWKVDNALQSGNSQESVTEQDSKDSTYSLSSTLTLSKADYEKHKVYACEVTHQGLSSPVTKSFNRGEC | binds
Clone 17L IgG2 (antibody, also called 17L G2) heavy: QVQLVQSGAEVKKPGASVKVSCKASGFDIQDTYMHWVRQAPGQGLEWMGRIDPASGHLKYDPKFQVRVTMTRDTSTSTVYMELSSLRSEDTAVYYCARSGGLPDMWGQGTTVTVSSASTKGPSVFPLAPCSRSTSESTAALGCLVKDYFPEPVTVSWNSGALTSGVHTFPAVLQSSGLYSLSSVVTVPSSNFGTQTYTCNVDHKPSNTKVDKTVERKCCVECPPCPAPPVAGPSVFLFPPKPKDTLMISRTPEVTCVVVDVSHEDPEVQFNWYVDGVEVHNAKTKPREEQFNSTFRVVSVLTVVHQDWLNGKEYKCKVSNKGLPAPIEKTISKTKGQPREPQVYTLPPSREEMTKNQVSLTCLVKGFYPSDIAVEWESNGQPENNYKTTPPMLDSDGSFFLYSKLTVDKSRWQQGNVFSCSVMHEALHNHYTQKSLSLSPGK light: EIVLTQSPGTLSLSPGERATLSCRASSSVSYMYWYQQKPGQAPRLLIYATSNLASGIPDRFSGSGSGTDFTLTISRLEPEDFAVYYCQQWQGNPRTFGGGTKLEIKRTVAAPSVFIFPPSDEQLKSGTASVVCLLNNFYPREAKVQWKVDNALQSGNSQESVTEQDSKDSTYSLSSTLTLSKADYEKHKVYACEVTHQGLSSPVTKSFNRGEC | binds
Clone 47 IgG2 (antibody, also called 47 G2) heavy: QVQLVQSGAEVKKPGASVKVSCKASGFDIQDTYMHWVRQAPGQGLEWMGRIEPASGHVKYDPKFQTRVTMTRDTSTSTVYMELSSLRSEDTAVYYCARSGGLPDWWGQGTTVTVSSASTKGPSVFPLAPCSRSTSESTAALGCLVKDYFPEPVTVSWNSGALTSGVHTFPAVLQSSGLYSLSSVVTVPSSNFGTQTYTCNVDHKPSNTKVDKTVERKCCVECPPCPAPPVAGPSVFLFPPKPKDTLMISRTPEVTCVVVDVSHEDPEVQFNWYVDGVEVHNAKTKPREEQFNSTFRVVSVLTVVHQDWLNGKEYKCKVSNKGLPAPIEKTISKTKGQPREPQVYTLPPSREEMTKNQVSLTCLVKGFYPSDIAVEWESNGQPENNYKTTPPMLDSDGSFFLYSKLTVDKSRWQQGNVFSCSVMHEALHNHYTQKSLSLSPGK light: EIVLTQSPGTLSLSPGERATLSCRASSSVSYMYWYQQKPGQAPRLLIYATSNLASGIPDRFSGSGSGTDFTLTISRLEPEDFAVYYCQQWEGNPRTFGGGTKLEIKRTVAAPSVFIFPPSDEQLKSGTASVVCLLNNFYPREAKVQWKVDNALQSGNSQESVTEQDSKDSTYSLSSTLTLSKADYEKHKVYACEVTHQGLSSPVTKSFNRGEC | binds
